Source: patent US20250084143A1 (INSERM INSTITUT NATIONAL DE LA SANT ET DE LA RECHERCHE M …, published 2025)

Biological target: T1, biotin-tagged HLA-A*03:01 monomers (immunAware) (human, biotin tag)
T1 construct: Bought recombinant monomer folded with the test peptide; also called HLA-A3; A3
Experiment: flow cytometry on streptavidin beads: folding of biotinylated HLA-A*03:01 monomer around the peptide, detected with anti-b2m; 1.2 nM complex
Procedure: Experimental binding to HLA-A3 was measured by flow cytometry using biotin-tagged HLA-A*03:01 monomers (immunAware). […] The bead-associated fluorescence is only detected if the test peptide supports the folding of the HLA-A3 complex. […] The HLA-A3-binding peptide Flu NP₂₆₅₋₂₇₃ ([sequence]), and a non-binding peptide CHGA₃₈₂₋₃₉₀ ([sequence]) were included as positive and negative controls, respectively.
A first selection was performed based on a novel HLA Class I binding assay that we set up. Briefly, the same biotinylated recombinant HLA-A3 monomeric molecules that are used for MMr production are folded with the test peptides and captured on streptavidin-coated beads.

RLKPSLVGK (From the SCG5-009 mRNA splice variant) [SCG5-009 193-201 peptide]: binds.
